Measurements reported in patent US20250145722A1 (TRUEBINDING, published 2025).
Changes are numbered by the printed parent chain. Names and notes keep the numbering of the source.

B1: F846C.1F5 (antibody, human IgG4 S228P, kappa, V domains shown)
VH: QIQLVQSGPELKKPGETVKISCKASGYTFTNYGMNWVKQAPGKGLKWMGWINTYTGEPSYADDFKGRFAFSLETSASTAYLQINNLKNEDMATYFCARWGGYDGDYYAMDYWGQGTSVTVSS
VL: NIMMTQSPSSLAVSAGEKVTMSCKSSQSVLYSSNQKNYLAWYQQKPGQSPKLLIYWASTRESGVPDRFTGSGSGTDFTLTISSVQPEDLAVYYCHQYLSSLTFGAGTKLELKR
notes: also called 846.1F5
B2: F846C.2H3 (antibody, human IgG4 S228P, kappa, V domains shown)
VH: B1 VH
VL: B1 VL
notes: also called 846.2H3
B3: F846C.1B2 (antibody, human IgG4 S228P, kappa, V domains shown)
VH: B1 VH with D103A, Y111F
VL: B1 VL with M3W, M4L, K18M, S22T, T78S, P86A
notes: also called 846.1B2
B4: F846TC.16B5 (antibody, human IgG4 S228P, kappa, V domains shown)
VH: B1 VH with S59A
VL: B1 VL with P86A
notes: also called 846T.16B5
B5: F847C.26F5 (antibody, human IgG4 S228P, kappa)
heavy: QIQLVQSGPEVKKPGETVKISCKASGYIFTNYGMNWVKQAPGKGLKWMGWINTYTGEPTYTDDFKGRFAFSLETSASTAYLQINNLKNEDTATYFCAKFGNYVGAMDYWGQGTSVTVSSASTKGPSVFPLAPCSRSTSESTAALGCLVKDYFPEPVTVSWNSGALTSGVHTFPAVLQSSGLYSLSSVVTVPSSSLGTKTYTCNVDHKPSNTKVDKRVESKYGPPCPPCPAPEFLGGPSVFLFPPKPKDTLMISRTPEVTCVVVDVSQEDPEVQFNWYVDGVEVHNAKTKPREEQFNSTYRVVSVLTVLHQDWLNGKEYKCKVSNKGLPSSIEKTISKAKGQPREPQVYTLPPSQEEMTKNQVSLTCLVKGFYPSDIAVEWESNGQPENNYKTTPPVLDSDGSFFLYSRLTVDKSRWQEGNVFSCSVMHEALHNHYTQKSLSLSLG
light: EIKMNQSPSSLSASLGDTITITCHASQNINVWLSWYQQKPGNIPKLLIYKASNLHTGVPSRFSGSGSGTGFTLTISSLQPEDIATYYCQQGQSYPYTFGGGTKLELKRTVAAPSVFIFPPSDEQLKSGTASVVCLLNNFYPREAKVQWKVDNALQSGNSQESVTEQDSKDSTYSLSSTLTLSKADYEKHKVYACEVTHQGLSSPVTKSFNRGEC
notes: also called 847.26F5
B6: F849C.8D10 (antibody, human IgG4 S228P, kappa, V domains shown)
VH: QVQLQQTGAELVKPGASVKLSCKASGYTFTSYWINWVKQRPGQGLEWIGNIYPGSSSIYYSEKFKSKATLTVDTSSSTAYMQLSSLTSDDSAVYYCARWGYWGQGTTLTVSS
VL: DVLMTQTPLSLPVSLGDQASISCRSSQDIVHSSGNTYLEWYLQKPGQSLKLLIYKVSNRFSGVPDRFSASGSGTDFTLKISRVEAEDLGVYYCFQGSHVPPTFGSGTKLEIKR
notes: also called 849.8D10
B7: 19B5.2E6 (antibody, mouse IgG2a, V domains shown)
VH: QIQLVQSGPELKKPGETVKISCKASGYTFTTYAMSWVKQAPGKGLKWMGWINTYSGVPTYADDLKGRFAFSLETSASTAYLQINNLKNEDTATYFCARGPYAMDYWGQGTSVTVSS
VL: DIQMTQTTSSLSASLGDRVTISCSASQGINNYLNWYQQKPDGTVKLLIYYASSLHSGVPSRFSGSGSGTDYSLTISNLEPEDIATYYCQQYSQVPYTFGSGTKLEIKR
B8: 23H9.2E4 (antibody, V domains shown)
VH: B7 VH
VL: DIQMTQTTSSLSASLGDRVTISCSASQGINNYLNWYQQKPDGTVKLLIYYASSLHSGVPSRFSGSGSGTDYSLTISNLEPEDIATYYCQQYSQVPYTFGSGTKLEIK
B9: F846TC.14E4 (antibody, human IgG4 S228P, kappa, V domains shown)
VH: QVTLKESGPGILQPSQTLSLTCSFSGFSLSTSGMGVGWIRQPSGKGLEWLAHIWWDDDKYYNTALKSGLTISKDASKNQVFLKIASMDTADTATYYCARNLYDGSYGYYAMDYWGQGTSVTVSS
VL: DIVMTQAAFSNPVTLGTSASISCRSSKSLLHTNGITFLYWYLQKPGQSPQPLIYQMSNLASGVPDRFSSSGSGTDFTLRISRVEAEDVGVYYCAQNLELPWTFGGGTKLEINR
notes: also called 846T.14E4
B10: F846TC.14A2 (antibody, human IgG4 S228P, kappa, V domains shown)
VH: QIQLVQSGPELKKPGETVKISCKASGYTFTNYGMNWVKQAPGKGLKWMGWINTYTGEPTYAGDLKGRFAFSLETSASTAYLQINNLKNEDTATYFCVRYTMDYWGQGTSVTVSS
VL: QAVVTQESALTTSPGETVTLTCRSSTGAVTTSNYANWVQEKPDHLFTGLIGGINNRVPGVPARFSGSLIGDKAALTITGAQTEDEAIYFCALWYSNHWVFGGGTKLTVLR
notes: also called 846T.14A2; 846.14A2
B11: 4A11.2B5 (antibody, human IgG4 S228P, kappa, V domains shown)
VH: QVQLQQSGPELVKPGASVKISCKASGYSFTNYYIHWVKQRPGQGLEWIGWIYPGSGNTNYNEKFKGKATLTADTSSSTTNMQLSSLTSEDSAVYYCSTAPGGFDVWGSGTTVTVSS
VL: DIVMTQAAFSNPVTLGTSASISCRSSKSLLHSDGITYLYWYLQRPGQSPQLLIYRMSNLASGVPDRFSGSGSGTDFTLRISRVEAEDVGVYYCAQMLEFPLTFGAGTKLELKR
B12: F846C.1H12 (antibody, human IgG4 S228P, kappa, V domains shown)
VH: B1 VH with Y32F, M91I, D103A
VL: B1 VL with E17Q, N34S, T69S
notes: also called 846.1H12
B13: F847C.4B10 (antibody, human IgG4 S228P, kappa, V domains shown)
VH: EVQLVETGGGLVKPGGSLKLSCAASGFTFSSYAMSWVRQTPEKRLEWVASISSGGSTYYPDSVKGRFTISRDNARNILYLQMSSLRSEDTAMYYCTRFTTVVEMDYWGQGTSVTVSS
VL: B10 VL with I53T, V57A, W98L
B14: F849C.8H3 (antibody, human IgG4 S228P, kappa, V domains shown)
VH: QVTLKESGPGILQPSQTLSLTCSFSGFSLSTFGMGVGWIRQPSGKGLEWLAHIWWDDDKHYNPALKSRLTISKDTSKNQVFLRIANVDTADNATYYCARIDYGDYVGFAYWGQGTLVTVSA
VL: B9 VL with V3G, T5R, H31Y, T32S, F37Y, Y41F, P51L, E86D, N112K
B15: F846C.1H5 (antibody, human IgG4 S228P, kappa, V domains shown)
VH: EVQLLESGGGLVKPGGSLKLSCAASGFTFSSYAMSWVRQTPEKRLEWVASISSGGDTYYPDSVKGRFTISRDNARNILYLQMSSLRSEDTAMYYCASYGNSLFDYWGQGTTLTVSS
VL: DVVMTQTPLSLPVSLGDQASISCRSSQSLVHNSGNTYLHWYLQRPGQSPNLLIYKVSNRFSGVPDRFSGSGSGTDFTLKISRVAAEDLGVYFCSQSTHVPPTFGGGTKLEIKR
B16: F846TC.7F10 (antibody, human IgG4 S228P, kappa, V domains shown)
VH: EVQLVESGGDLVKPGGSLKLSCAASGFTFSNYGLSWIRQTPDKRLEWVATISSGGSYTYYPDSVKGRFTISRDSAKNTLYLQMSSLKSEDTAMYYCARHAHYYGVSPYYFDYWGQGTCLTVSS
VL: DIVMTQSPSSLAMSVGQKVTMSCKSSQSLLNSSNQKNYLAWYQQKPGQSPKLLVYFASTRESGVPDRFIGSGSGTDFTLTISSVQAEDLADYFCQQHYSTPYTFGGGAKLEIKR
notes: also called 846T.7F10
B17: recombinant human TGF-beta RI/ALK-5 Fc chimera protein (R&D Systems, 3025-BR) (Fc fusion, UniProt P36897 24-125, looked up, not shown: a dimerising Fc or GST)
chain: AAALLPGATALQCFCHLCTKDNFTCVTDGLCFVSVTETTDKVIHNSMCIAEIDLIPRDRPFVCAPSSKTGSVTTTYCCNQDHCNKIELPTTVKSSPGLGPVE
notes: also called TGFβ RI; TGFBR1
B18: recombinant human TGF-beta sRII/Fc (R&D Systems, 341-BR) (Fc fusion, UniProt P37173 24-159, looked up, not shown: a dimerising Fc or GST)
chain: IPPHVQKSVNNDMIVTDNNGAVKFPQLCKFCDVRFSTCDNQKSCMSNCSITSICEKPQEVCVAVWRKNDENITLETVCHDPKLPYHDFILEDAASPKCIMKEKKKPGETFFMCSCSSDECNDNIIFSEEYNTSNPD
notes: also called TGFβ R2; TGFBR2

Each binder was assayed against T1, human Galectin-3 (Gal3), full-length recombinant (human, UniProt P17931 2-250) (assay: blocking ELISA, Gal3 coated, TREM2-His).
T1 construct: treated here as one molecule; also called hGAL3; hGal3
T1 sequence (P17931 2-250 limits assumed): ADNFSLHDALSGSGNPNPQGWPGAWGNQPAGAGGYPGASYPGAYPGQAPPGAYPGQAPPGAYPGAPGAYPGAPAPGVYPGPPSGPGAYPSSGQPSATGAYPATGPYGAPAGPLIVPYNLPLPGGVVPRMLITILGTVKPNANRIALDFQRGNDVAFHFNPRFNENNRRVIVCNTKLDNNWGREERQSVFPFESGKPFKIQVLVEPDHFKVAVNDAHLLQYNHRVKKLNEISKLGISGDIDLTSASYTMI
Method: The plate was incubated for an hour at room temperature with gentle rocking. Thereafter, the plate was washed three times with PBST. Anti-6× His tag antibody-HRP (Abcam, ab1269) was then added to the wells at 1:3000 dilution in 2% BSA in PBST. The plate was incubated at room temperature for an hour with gentle rocking and then washed three times with PBST.

| Binder | % blocking of Gal3-TREM2 binding |
| --- | --- |
| B1 | > 90% |
| B2 | > 90% |
| B3 | > 90% |
| B4 | > 90% |
| B5 | < 47% |
| B6 | > 90% |
| B7 | > 90% |
| B8 | > 90% |
| B9 | > 90% |

What follows are binders tested against T1, human Galectin-3 (Gal3), full-length … (assay: blocking ELISA, Gal3 coated, biotin-TLR4).

| Binder | % blocking of Gal3-TLR4 binding |
| --- | --- |
| B1 | > 90% |
| B2 | > 90% |
| B3 | > 90% |
| B4 | > 90% |
| B10 | > 90% |
| B6 | > 90% |
| B7 | > 90% |
| B8 | > 90% |
| B9 | > 90% |

What follows are binders tested against T1, human Galectin-3 (Gal3), full-length … (assay: blocking ELISA, Gal3 coated, biotin-Tau aggregates).
Method: The plate was incubated for an hour at room temperature with gentle rocking. Thereafter, the plate was washed three times with PBST. […] The plate was incubated at room temperature for an hour with gentle rocking and then washed three times with PBST.

| Binder | % blocking of Gal3-Tau aggregates binding |
| --- | --- |
| B1 | > 90% |
| B3 | > 90% |

These binders were tested against T1, human Galectin-3 (Gal3), full-length … (assay: cell-based or functional assay).

| Binder | decrease in TGFβ induction of ColA1 mRNA in LX2 cells (qRT-PCR) |
| --- | --- |
| B7 | 85% |
| B11 | 58% |

These binders were tested against T1, human Galectin-3 (Gal3), full-length … (assay: blocking ELISA, Gal3 coated, biotin-Abeta42 peptide).

| Binder | % blocking of Gal3-Abeta42 peptide binding |
| --- | --- |
| B1 | > 90% |
| B2 | > 90% |
| B3 | > 90% |
| B4 | > 90% |
| B10 | > 90% |
| B6 | > 90% |
| B7 | > 90% |
| B8 | < 46% |
| B9 | > 90% |

The binders below were run against T1, human Galectin-3 (Gal3), full-length … (assay: blocking ELISA, Gal3 coated, biotin-APP695).

| Binder | % blocking of Gal3-APP695 binding |
| --- | --- |
| B1 | > 90% |
| B2 | > 90% |
| B3 | > 90% |
| B12 | > 90% |
| B4 | > 90% |
| B5 | 87% |
| B10 | > 90% |
| B13 | > 83% |
| B6 | > 90% |
| B7 | > 90% |
| B9 | > 90% |
| B14 | > 90% |

What follows are binders tested against T1, human Galectin-3 (Gal3), full-length … (assay: blocking ELISA, Gal3 coated, biotin-Abeta42 oligomer).

| Binder | % blocking of Gal3-Abeta42 oligomer binding |
| --- | --- |
| B1 | > 90% |
| B10 | > 90% |
| B13 | < 26% |
| B7 | > 90% |
| B8 | < 26% |
| B9 | > 90% |

These binders were tested against T1, human Galectin-3 (Gal3), full-length … (assay: not stated. Exponent is printed without a minus sign; value taken as a negative power of ten because the column is a KD in M).

| Binder | Kd |
| --- | --- |
| B15 | 3.41 nM |
| B1 | 1.63 nM |
| B2 | 1.72 nM |
| B3 | 5.74 nM |
| B12 | 0.622 nM |
| B4 | 0.927 nM |
| B5 | 20.9 nM |
| B10 | 3.26 nM |
| B13 | 21.5 nM |
| B16 | 1.4 nM |
| B6 | 3.75 nM |
| B9 | 0.556 nM |

Each binder was assayed against T1, human Galectin-3 (Gal3), full-length … (assay: SPR (Carterra LSA, HC30M chip with Protein A/G, receptor-Fc captured, Gal3 0-128 nM as analyte, 25 °C)).
Method: Briefly, kinetics experiment was performed on Caterra LSA at 25° C. A HC30M chip was immobilized with recombinant Protein A/G.
The complex was allowed to associate and dissociate for 300 s and 240 s, respectively. Eight cycles of kinetics were done sequentially for the dilution series.

| Binder | Kd | koff | kon |
| --- | --- | --- | --- |
| B17 | 314 nM | 0.0351 s⁻¹ | 112000 M⁻¹ s⁻¹ |
| B18 | 725 nM | 0.0837 s⁻¹ | 116000 M⁻¹ s⁻¹ |
